Test results from US5919901.

Assays:
[1] = molecular target: rat NPY Y5 receptor, clone Y861 (rat); experiment: competition with [125I]PYY, membranes of transfected COS-7 cells
Rat Y1 (clone) (rat) = Rat Y1 (clone) (rat) (UniProt P21555); experiment: competition with [125I]PYY on the rat Y1 clone
Rat Y2 (clone) (rat) = experiment: competition with [125I]PYY on the rat Y2 clone
[2] = molecular target: rat NPY Y5 receptor, clone Y217.24.13.6B (rat); experiment: competition with [125I]PYY, membranes of transfected COS-7 cells; first individual value in brackets
[3] = molecular target: rat NPY Y5 receptor, clone Y217.24.13.6B (rat); experiment: competition with [125I]PYY, membranes of transfected COS-7 cells; second individual value in brackets
[4] = molecular target: rat NPY Y5 receptor, clone Y555 (rat); experiment: competition with [125I]PYY, membranes of transfected COS-7 cells; average of two experiments
[5] = molecular target: rat NPY Y5 receptor, clone Y555 (rat); experiment: competition with [125I]PYY, membranes of transfected COS-7 cells; first individual value in brackets
[6] = molecular target: rat NPY Y5 receptor, clone Y555 (rat); experiment: competition with [125I]PYY, membranes of transfected COS-7 cells; second individual value in brackets
Rat Y4/PP1 (clone) (rat) = Rat Y4/PP1 (clone) (rat) (UniProt Q63447); experiment: competition with rat [125I]PP on the rat Y4/PP1 clone
Rat Y4/PP1 (clone) (rat), sequence (Q63447 whole entry): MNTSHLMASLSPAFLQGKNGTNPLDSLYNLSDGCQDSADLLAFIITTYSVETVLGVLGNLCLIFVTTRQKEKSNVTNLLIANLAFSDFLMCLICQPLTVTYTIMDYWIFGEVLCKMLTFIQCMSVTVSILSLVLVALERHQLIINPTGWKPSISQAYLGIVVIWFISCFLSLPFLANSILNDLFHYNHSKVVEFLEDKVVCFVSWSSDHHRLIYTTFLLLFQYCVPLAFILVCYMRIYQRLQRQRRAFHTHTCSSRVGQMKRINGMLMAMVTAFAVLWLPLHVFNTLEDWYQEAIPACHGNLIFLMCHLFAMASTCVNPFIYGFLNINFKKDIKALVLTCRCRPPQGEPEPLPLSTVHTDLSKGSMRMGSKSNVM

IC50 (Rat Y1 (clone) (rat)) | IC50 (Rat Y2 (clone) (rat)) | Substance | also measured
> 1000 nM | > 1000 nM | (1-24)NPY (peptide) | IC50 [1]: > 1000 nM
 |  | h(Leu^31 Pro^34)PYY (from UniProt P10082) (peptide) | IC50 [1]: 2 nM; IC50 [2]: 0.65 nM; IC50 [3]: 0.69 nM
 | 1.3 nM | p(13-36)NPY (from UniProt P01304) (peptide) | 
0.15 nM | 150 nM | p(Leu^31 Pro^34)NPY (from UniProt P01304) (peptide) | 
 | 0.5 nM | r/h(2-36)NPY (from UniProt P01303) (peptide) | 
 | 0.42 nM | r/h(10-36)NPY (from UniProt P01303) (peptide) | 
> 1000 nM |  | r/h(32D-Trp)NPY (from UniProt P01303) (peptide) | IC50 [1]: 7 nM
 |  | r/h(LP)NPY (from UniProt P01303) (peptide) | IC50 [4]: 0.96 nM; IC50 [5]: 1 nM; IC50 [6]: 0.92 nM
44 nM | 154 nM | r/h(Leu^31 Pro^34)(3-36)NPY (from UniProt P01303) (peptide) | 
 | 0.24 nM | r/hNPY (from UniProt P01303) (peptide) | 
 |  | r/hNPY, P01303 (peptide; other documents disagree on this pair) | IC50 (Rat Y4/PP1 (clone) (rat)): > 1000 nM
 | > 1000 nM | rPP (from UniProt P06303) (peptide) | 
 | 0.079 nM | rPYY (from UniProt P10631) (peptide) | 
